Data published in publication doi:10.1101/2023.01.06.522972.

Biological target: Leishmania major actin (Leishmania major) (UniProt P45520)
Assay: ITC

Leishmania major actin (Leishmania major), sequence (P45520 2-376): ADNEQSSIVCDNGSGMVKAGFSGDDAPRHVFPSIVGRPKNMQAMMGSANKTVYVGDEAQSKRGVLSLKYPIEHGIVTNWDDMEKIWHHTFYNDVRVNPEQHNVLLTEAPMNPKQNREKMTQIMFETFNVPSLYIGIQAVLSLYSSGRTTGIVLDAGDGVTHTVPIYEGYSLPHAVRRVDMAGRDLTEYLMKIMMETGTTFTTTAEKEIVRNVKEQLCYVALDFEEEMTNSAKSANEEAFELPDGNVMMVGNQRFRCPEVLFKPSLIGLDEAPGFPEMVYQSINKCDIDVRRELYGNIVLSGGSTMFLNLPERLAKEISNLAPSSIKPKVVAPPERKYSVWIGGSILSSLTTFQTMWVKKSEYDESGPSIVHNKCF

Row | Substance | Kd [µM]
1 | LmProfilin-K68A (natural protein) | 6
2 | LmProfilin-Y6A (natural protein) | 0.08
